Assay results: patent EP4019546A1 (Numab Therapeutics AG, dated 2022)
Positions count from the first letter of the chain named.

T1: human IL-31 (human, UniProt Q6EBC2 24-164)
T1 sequence (looked up): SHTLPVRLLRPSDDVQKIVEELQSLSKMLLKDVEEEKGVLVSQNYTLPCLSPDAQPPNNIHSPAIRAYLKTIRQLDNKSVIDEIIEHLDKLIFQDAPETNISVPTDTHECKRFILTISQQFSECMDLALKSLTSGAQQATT

T2: cynomolgus IL-31-His (cynomolgus monkey (Macaca fascicularis), UniProt G7PJ78 24-163)
T2 construct: extracellular domain; also called cynomolgus monkey IL-31; cyno IL-31; not shown: His tag
T2 sequence: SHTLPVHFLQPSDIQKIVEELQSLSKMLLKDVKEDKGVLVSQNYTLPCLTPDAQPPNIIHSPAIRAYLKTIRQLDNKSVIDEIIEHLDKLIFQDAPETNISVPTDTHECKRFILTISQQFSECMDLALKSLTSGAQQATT

B1: PRO1900 (scFv)
chain: AFQLTQSPSSLSASVGDRVTITCQASQSIDSWLAWYQQKPGKPPKLLIYQASKLASGVPSRFSGSGSGTDYTLTISSLQPEDFATYYCQTYYGGGHIGWGFGTGTKVTVLGGGGGSGGGGSGGGGSGGGGSQSQLVESGGGRVQPGGSLRLSCAASGFSFSANYWICWVRQAPGKGLEWIVCIYIGSRADTYYAPWAKGRFTISKDNSKNTVYLQMNSLRAEDTATYFCARFSSGIYDLDRFFLWGQGTQVTVSS
B2: PRO1902 (scFv)
chain: B1 chain with R142L, Y184S, T226V, Q250L
B3: PRO1901 (scFv)
chain: B1 chain with R142S
B4: PRO1903 (scFv)
chain: B1 chain with D30E, R142L, T226V, Q250L
B5: PRO2198 (bispecific antibody)
chain 1: DIQMTQSPSSLSARVGDRVTITCQASEDIESYLAWYQQKPGKAPKLLIYRASTLAYGVPSRFSGSGSGRDFTLTISSLQPEDFATYYCLGSSYSTGSNIFGQGTKVEIKRTVAAPSVFIFPPSDEQLKSGTASVVCLLNNFYPREAKVQWKVDNALQSGNSQESVTEQDSKDSTYSLSSTLTLSKADYEKHKVYACEVTHQGLSSPVTKSFNRGEC
chain 2: not shown
B6: PRO2199 (bispecific antibody)
chain 1: not shown
chain 2: B5 chain 1 with R14S, R69T

These binders were tested against T1, human IL-31 (assay: cell-based or functional assay).

Q: How did the “IC50, neutralization of hIL-31-induced signaling in IL-31RA/OSMR dimerization assay” value turn out when B1 was run?
A: 8.21 ng/mL

Q: B2 was tested. Which “IC50, neutralization of hIL-31-induced signaling in IL-31RA/OSMR dimerization assay” value did it give?
A: 371 ng/mL

Q: With B3 as the binder, how does the “IC50, neutralization of hIL-31-induced signaling in IL-31RA/OSMR dimerization assay” value read?
A: 8.07 ng/mL

Q: With B4 as the binder, how does the “IC50, neutralization of hIL-31-induced signaling in IL-31RA/OSMR dimerization assay” value read?
A: 7.98 ng/mL

Target: T1, human IL-31
Test: cell-based or functional assay
Remark: another data set of the same source

Q: B5 was tested. Which “Mean IC50, neutralization of human IL-31-induced signaling in IL-31RA/OSMR dimerization assay” value did it give?
A: 0.198 nM

Q: With B6 as the binder, how does the “Mean IC50, neutralization of human IL-31-induced signaling in IL-31RA/OSMR dimerization assay” value read?
A: 0.142 nM

What follows are binders tested against T2, cynomolgus IL-31-His (assay: SPR (Biacore T200), IL-31-His captured via anti-His antibody, scFv as analyte, 1:1 model).

Q: Which Kd does the source give for B2 here?
A: 3.38 nM

Q: And the koff?
A: 0.00247 s⁻¹

Q: And the kon?
A: 731000 M⁻¹ s⁻¹

Q: What does the source list for B3?
A: Kd: 1.14 nM; koff: 0.000569 s⁻¹; kon: 501000 M⁻¹ s⁻¹

Q: With B4 as the binder, how does the Kd read?
A: 1.39 nM

Q: And the koff?
A: 0.000605 s⁻¹

Q: What about the kon of the same binder?
A: 434000 M⁻¹ s⁻¹
